Assay [1] has as its target T1, human Galectin-9 CRD2 W309K mutant, biotinylated (human, UniProt O00182 218-355, biotinylated (Avitag)).
T1 construct: also called W309K Galectin-9 CRD2 mutant; not shown: tags of the pHBT vector as for wild-type CRD2
The experiment in a line: phage ELISA, phage-displayed Fab. As to the method:
(§1) FIG. 13 is a graph showing a binding characterization of G9.2 Fab clone for wild-type Galectin-9 CRD2 or the […] mutant using phage ELISA. Binding of Fab clones to human Galectin-9 CRD2 assayed using phage ELISA.
(§2) Potential additional epitopes were explored using additional clones that bind to Galectin-9 CRD2. A phage display library selection using a modified scheme so as to enrich clones that bind to an epitope that is distinct from that of G9.2-17 was performed.

For assay [2], the target named is T2, human Galectin-9 CRD2 (residues 218-355), biotinylated (human, UniProt O00182 218-355, biotinylated in vitro with BirA (Avitag)).
T2 construct: also called wild type human Galectin-9 CRD2; not shown: hexahistidine tag, Avitag and TEV cleavage site upstream of the cloned gene (pHBT vector)
T2 sequence (O00182 218-355 limits assumed): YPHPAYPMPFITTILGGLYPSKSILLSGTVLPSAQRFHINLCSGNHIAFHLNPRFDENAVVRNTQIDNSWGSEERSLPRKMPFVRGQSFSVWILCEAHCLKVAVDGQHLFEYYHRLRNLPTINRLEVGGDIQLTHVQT
The experiment in a line: phage ELISA, phage-displayed Fab; also on CRD2 pre-incubated with G9.2-17 IgG. As to the method: as §1, §2

The target of assay [3] is T2, human Galectin-9 CRD2 (residues …). The experiment in a line: bead-based binding assay.
The target of assay [4] is T3, human Galectin-9 CRD1 (residues 1-148), biotinylated (human, UniProt O00182 1-148, biotinylated in vitro with BirA (Avitag)).
T3 construct: Made as GST fusion, GST cleaved off with thrombin, gel filtered, biotinylated; not shown: Avitag upstream of the cloned gene (pGEX vector), left after thrombin cleavage from GST
T3 sequence (O00182 1-148): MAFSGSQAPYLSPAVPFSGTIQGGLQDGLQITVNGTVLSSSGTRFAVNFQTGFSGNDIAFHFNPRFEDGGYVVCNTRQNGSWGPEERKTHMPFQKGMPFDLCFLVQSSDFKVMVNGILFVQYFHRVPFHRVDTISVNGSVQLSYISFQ
The experiment in a line: bead-based binding assay, flow cytometry. As for the experimental part:
(§3) The affinities of the antibodies were assessed using a bead-based assay as previously described (Nishikori et al., J Mol Biol, 2012, 424, 391-399) and surface plasmon resonance (SPR). In the bead-based assay, a biotinylated protein (either a Galectin-9 sample or a Fab sample) was immobilized on streptavidin-coated Dynabeads M280 via the biotin-streptavidin interaction. After blocking the excess biotin-binding sites on the beads using unconjugated biotin, binding titration was performed by incubating the second component (i.e., Fab for immobilized Galectin-9 or vice versa), followed by quantification using a dye-labeled neutravidin (ThermoFisher) and flow cytometry analysis. In experiments where the second component is an IgG, a dye-labeled anti-human IgG or anti-mouse IgG antibody was used for detection.

In assay [5] the target is T2, human Galectin-9 CRD2 (residues …). The experiment in a line: phage ELISA, phage-displayed Fab. As to the method:
as §1, §2

Assay [6] concerns the target T3, human Galectin-9 CRD1 (residues 1-148), …. The experiment in a line: bead-based binding assay, purified Fab (FIG. 5). As for the experimental part: as §3
Assay [7] addresses T2, human Galectin-9 CRD2 (residues …). The experiment in a line: SPR, Fab over CRD2 on Avicap chip (OneStep). The source says: FIG. 12 contains charts showing surface plasmon resonance analyses of Fab G9.2-17 (top) and Fab G9.2.17mut6 (bottom) binding to the CRD2 of human (left) and mouse (right) Galectin-9. Human or mouse Galectin-9 CRD2 was immobilized on an Avicap chip preloaded with neutravidin on a Pall ForteBio Pioneer instrument. Fab samples were then flowed using the OneStep method. The binding and dissociation phases of the experiments are marked in the top panels.
In SPR experiments, a biotinylated Galectin-9 sample was immobilized on an Avicap chip (Pall ForteBio) that had been preloaded with neutravidin (ThermoFisher). Antibody samples were flowed using the OneStep method on a Pioneer SPR instrument (Pall ForteBio) and the results are provided in FIG. 6.

T1 sequence (O00182 218-355 W309K): as the sequence (O00182 218-355 limits assumed) above, with W92K counted along it

B1: G9.2-25 Fab (Fab, V domains shown)
VH: EVQLVESGGGLVQPGGSLRLSCAASGFTLSSSSIHWVRQAPGKGLEWVASIYSSYGSTSYADSVKGRFTISADTSKNTAYLQMNSLRAEDTAVYYCARQYYTYFEWYMGWGYALDYWGQGTLVTVSS
VL: DIQMTQSPSSLSASVGDRVTITCRASQSVSSAVAWYQQKPGKAPKLLIYSASSLYSGVPSRFSGSRSGTDFTLTISSLQPEDFATYYCQQSYVYYPFTFGQGTKVEIKR
As to B1, the binding result in assay [1] and in assay [2] was “binds” throughout.

B2: G9.2-26 Fab (Fab, V domains shown)
VH: EVQLVESGGGLVQPGGSLRLSCAASGFTVSSSSIHWVRQAPGKGLEWVAYISSYSGSTYYADSVKGRFTISADTSKNTAYLQMNSLRAEDTAVYYCARSSALYWMDFSYSALDYWGQGTLVTVSS
VL: DIQMTQSPSSLSASVGDRVTITCRASQSVSSAVAWYQQKPGKAPKLLIYSASSLYSGVPSRFSGSRSGTDFTLTISSLQPEDFATYYCQQGGWYYGPITFGQGTKVEIKR
Regarding B2, the binding result in assay [1] and in assay [2] was “binds” each time.

B3: G9.1-8m12 mIgG2a (antibody, V domains shown)
VH: EVQLVESGGGLVQPGGSLRLSCAASGFTVSSSSIHWVRQAPGKGLEWVAYIYPYSSSSSYADSVKGRFTISADTSKNTAYLQMNSLRAEDTAVYYCARYSTYSSSKWVWGMDYWGQGTLVTVSS
VL: DIQMTQSPSSLSASVGDRVTITCRASQSVSSAVAWYQQKPGKAPKLLIYSASSLYSGVPSRFSGSRSGTDFTLTISSLQPEDFATYYCQQSYYDSNPITFGQGTKVEIKR
notes: also called G9.1-8mut12
With B3, the binding result in assay [3] is listed as “no binding”. This molecule returned a Kd in assay [4] of 0.32 nM.

B4: G9.1-8m13 mIgG2a (antibody, V domains shown)
VH: EVQLVESGGGLVQPGGSLRLSCAASGFTVSSSSIHWVRQAPGKGLEWVAYIYPYSSSSSYADSVKGRFTISADTSKNTAYLQMNSLRAEDTAVYYCARYSTYSSKWVWGMDYWGQGTLVTVSS
VL: DIQMTQSPSSLSASVGDRVTITCRASQSVSSAVAWYQQKPGKAPKLLIYSASSLYSGVPSRFSGSRSGTDFTLTISSLQPEDFATYYCQQSYYDSNPITFGQGTKVEIKR
notes: also called G9.1-8mut13
For B4, the binding result in assay [3] was “no binding”. In assay [4], this molecule gave a Kd of 0.3 nM.

B5: G9.1-8m14 mIgG2a (antibody, V domains shown)
VH: EVQLVESGGGLVQPGGSLRLSCAASGFTVSSSSIHWVRQAPGKGLEWVAYIYPYSSSSSYADSVKGRFTISADTSKNTAYLQMNSLRAEDTAVYYCARYSTYKWVWGMDYWGQGTLVTVSS
VL: DIQMTQSPSSLSASVGDRVTITCRASQSVSSAVAWYQQKPGKAPKLLIYSASSLYSGVPSRFSGSRSGTDFTLTISSLQPEDFATYYCQQSYYDSNPITFGQGTKVEIKR
notes: also called G9.1-8mut14
B5: the binding result in assay [3] is “no binding”. The molecule also registered a Kd in assay [4] of 2.01 nM.

B6: G9.2-15 Fab (Fab, V domains shown)
VH: EVQLVESGGGLVQPGGSLRLSCAASGFTVSSSSIHWVRQAPGKGLEWVASIYSSSGYTSYADSVKGRFTISADTSKNTAYLQMNSLRAEDTAVYYCARNVENYPYWAWPWGYYGAIDYWGQGTLVTVSS
VL: DIQMTQSPSSLSASVGDRVTITCRASQSVSSAVAWYQQKPGKAPKLLIYSASSLYSGVPSRFSGSRSGTDFTLTISSLQPEDFATYYCQQSSWGLITFGQGTKVEIKR
notes: Avitag at the C-terminus of the heavy chain, biotinylated when required; also called Fab G9.2-15
B6: the binding result in assay [5] was “binds”.

B7: G9.2-24 Fab (Fab, V domains shown)
VH: EVQLVESGGGLVQPGGSLRLSCAASGFTVYSSSIHWVRQAPGKGLEWVASIYSSYGYTSYADSVKGRFTISADTSKNTAYLQMNSLRAEDTAVYYCARSYSSETHYGWAMDYWGQGTLVTVSS
VL: DIQMTQSPSSLSASVGDRVTITCRASQSVSSAVAWYQQKPGKAPKLLIYSASSLYSGVPSRFSGSRSGTDFTLTISSLQPEDFATYYCQQWSQSPVTFGQGTKVEIKR
As to B7, the binding result in assay [1] and in assay [2] was “binds” each time.

B8: G9.2-17 Fab (Fab, V domains shown)
VH: EVQLVESGGGLVQPGGSLRLSCAASGFTVSSSSIHWVRQAPGKGLEWVAYISSSSGYTYYADSVKGRFTISADTSKNTAYLQMNSLRAEDTAVYYCARYWSYPSWWPYRGMDYWGQGTLVTVSS
VL: DIQMTQSPSSLSASVGDRVTITCRASQSVSSAVAWYQQKPGKAPKLLIYSASSLYSGVPSRFSGSRSGTDFTLTISSLQPEDFATYYCQQSSTDPITFGQGTKVEIKR
notes: Avitag at the C-terminus of the heavy chain, biotinylated when required; also called Fab G9.2-17
As for B8, the binding result in assay [5] is “binds”.

B9: G9.1-6 Fab (Fab, V domains shown)
VH: EVQLVESGGGLVQPGGSLRLSCAASGFTLSSSSIHWVRQAPGKGLEWVASIYSSYGSTSYADSVKGRFTISADTSKNTAYLQMNSLRAEDTAVYYCARSSHWYMYWSYWGWYIGMDYWGQGTLVTVSS
VL: DIQMTQSPSSLSASVGDRVTITCRASQSVSSAVAWYQQKPGKAPKLLIYSASSLYSGVPSRFSGSRSGTDFTLTISSLQPEDFATYYCQQYHSSLFTFGQGTKVEIKR
notes: Avitag at the C-terminus of the heavy chain, biotinylated when required
Turning to B9, in assay [6], the binding result was “binds”.

B10: G9.2-17mut6 Fab (Fab, V domains shown)
VH: EVQLVESGGGLVQPGGSLRLSCAASGFTVSSSSIHWVRQAPGKGLEWVAYISSSSGYTYYADSVKGRFTISADTSKNTAYLQMNSLRAEDTAVYYCARYWSYPSWSPYRGMDYWGQGTLVTVSS
VL: DIQMTQSPSSLSASVGDRVTITCRASQSVSSAVAWYQQKPGKAPKLLIYSASSLYSGVPSRFSGSRSGTDFTLTISSLQPEDFATYYCQQSSTDPITFGQGTKVEIKR
notes: Purified Fab; point mutant of G9.2-17 in CDR-H3; also called Fab G9.2-17mut6; G9.2-17m6
Regarding B10, in assay [7], the binding result is recorded as “binds”.

The values are drawn from patent US20220340666A1 (NEW YORK UNIVERSITY, published 2022).
